Test results as given in the nanobody polyreactivity screen of Harvey et al. (2022).

Test: yeast display, Sf9 membrane polyspecificity reagent, FACS + sequencing; frameworks hold sequencing errors
Outline: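 A synthetic nanobody library was expressed on Saccharomyces cerevisiae BJ5465 by galactose induction for 36–48 hours. The library was stained for 1 hour at 4 °C with 10% biotinylated, detergent-solubilized Sf9 membrane reagent and enriched with streptavidin microbeads before FACS. Low and high (top ~1%) gates were set on anti-HA fluorescence for expression and streptavidin fluorescence for reagent binding, and each polyreactivity label reflects the gate of origin.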

Sequence	polyreactivity (PSR sort gate)
QVQLVESGGGLVQAGVSLRLSCPASGRTFGWYAMGWYRQAPGTERELVAAITSGTSTYYADSVKGRFTISRDNAKNTVYLQMNSLKPEDTAVYYCAVDRGISVGYTRFDYWGQGTQVSVSS	low polyreactivity
QVQLVESGGGLVQAGVSLRLSCSASGGTFPQYAMAWYRHAPGKEREFVADITSRGGTTYYADSVKGRFTISRDNAKNTVFLQMNRLKPEDTAVYFCAADNPADWWGLDYWGQGTQVTVSS	low polyreactivity
QVQLVESGGGLVQAGVSLRLSWAASGRTGVNAMGWYRQAPGKERGLVAAINTSVGRTYYADSVKGRFTISRDNAKNPVYLQMNCLKPEDTAVYYCNTDRLGAARYDDWGQGTQVTVSS	low polyreactivity
QVQLVESGGGLVQAGWSLRLSCAASGRTFTHAMGWYRQAPGKERELVADISSGGSPNYADSVKGRFTISRDNAKNSVYLQMNSLKREDTAVSYCAAVSGSLYGYSVDYWGQGTQVTGSS	low polyreactivity
QVQLVESGGGLVQARGILRLSCAASGIIFYTYAMGLYRQAPGKERELVAAITARTANTYYADSVKGRFTISRDNAKNTVYLQMNSLKPEDTAVYYCAAAIYSYRTPYYYWGQGTQVTVSS	high polyreactivity
QVQLVESGGGLVQARGSLRLICAASGFTFYRYVMGWYRQAPGKVRELVAAITGRGGSTYYADSVKGRFTISRDNAKNTVYLQMNSRKPEDTAVYYCAARYVTGTLYLAPYEYWGQGTQVTLSS	low polyreactivity
QVQLVESGGGLVQARGSLRLICAASGSTFGVHAMGWSRQAPGKERELVAAITWRGGSTYYADSLKGRFTISRDTAKNTVYLQMNSLKPEDTAVYYCAADPRYYSYEYWGEGTQVTVSS	high polyreactivity
QVQLVESGGGLVQARGSLRLSCAASGFIFGYYAKGWYRQAPGKERELVAAISPSGGRTYYADSVKGRFTISRDNAKNTVYLQMNILKPEDTAVYYCAAEYAYSLDPVEDYWGQGTLVTVSS	high polyreactivity
QVQLVESGGGLVQARGSLRLSCAASGIILYRNGMGWYRQAPGKERELVAAISWSTGSTYYADSVKGRFTISRDNAKNTVYLQMNSLKPEDTAVYYCATDYVGYSFGMYYWGQGTQVTVSS	low polyreactivity
QVQLVESGGGLVQARGSLRLSCAASGITFGRNTMGWYRQAPGKERELVAAIDSGGNTYADSVKGRFTISRDNAKNTVYLQMNSLKPDDTAVYYCAVDGGEFSSYGYWGQGTQVTVSS	low polyreactivity
QVQLVESGGGLVQARGSLRLSCAASGLTSRYYAMGWYRQAPGKERELVAAISSRGGRTYYADSVKGPFTISRDNAKNTVYLQMNSLQPEDTAVYYCYAAAGAYSFLSTYNRGEEYWGQGTQVTVSS	high polyreactivity
QVQLVESGGGLVQARGSLRLSCAASGRIFNTYAMGRYIQAPGKERELVAAITSSGGSTYYADSVKGRFTISRDNAKNTVYFQMNSLKPEDTAVYYCNAGSLHRRYYYEGDYWGQGTQVTVSS	high polyreactivity
QVQLVESGGGLVQARGSLRLSCAASGRIFRYYAMGSYRQAPGKERELVASITSGARTSYADSVKGRFTISRDIAKNTVYLQMNSLKPEDTAVYYCAAGGRARTYYYWGQGTQVTVSS	high polyreactivity
QVQLVESGGGLVQARGSLRLSCAASGRTISYNVMGWYRQAPGKERELVAAITWTGGSTYYADSVKGRFTISRDNAKNTVYLLMNSLKPEDTAVYYCNAAKPYAYWVPNDYWGQGTQVTVSS	low polyreactivity
QVQLVESGGGLVQARGSLRLSCAASGSIFGYNVMGWYRQAPGIERELVAAITVNGGRTYYADSVKGRFTISRDNAKNTVYLQMNSLIPEDTAVDDCAARVTGTQRSGYYWGQGTQVTVSS	high polyreactivity
QVQLVESGGGLVQARGSLRLSCAASGSIFNLYAMGWYRQAPGKEREFVASISYSGGSTYYADSVKGRFTISRDNAKNTVYLQINSLKPEDTAVYYCNARLEVYGQRYDYWGQGTQVTVSS	low polyreactivity

Sequence	polyreactivity (PSR sort gate)
QVQLVESGGGLVQARGSLRLSCAASGSIFSANAMGWYRQAPVKERELVAAISSSGNTNYADSVKGRFTISRDNAKNTLYLQMNSLKPEDTAVYYCAVELKQVTPGLGYITLDYWGQGTQVTVSS	low polyreactivity
QVQLVESGGGLVQARGSLRLSCAASGSIFYGYALGWYRQAPGKERELVAAITSSGTRTYYADSVKGRFTISRDNAKNTVYLQMNSLKPEDTAVYYCAADGPGYQYDFWGQGTQVTVSS	high polyreactivity
QVQLVESGGGLVQARGSLRLSCAASGSTFLFYAMGWYRQPPGKERELVAAISRGDSTYYAESVKGRFTISRDIAKNTVYLQMNSLKPEDTAVYYCAAGYNHLYVYRMYYWGQGTQVTVSS	high polyreactivity
QVQLVESGGGLVQARGSLRLSCAASGSTFQYTMGCYRQAPRTERELVAAITSTGGSTYYADSVKGRFTISRDNAKNTVYLQRNSLKAEDTAVYYWNADYFGGGDYWGQGTQVTVSS	low polyreactivity
QVQLVESGGGLVQARGSLRLSCAASGSTFSYYTMGWYRQAPGKERELVATISRRGASTYYADSVKGRFTISRDNAKNTVYLQMHSLKPEDTAVYYCAKSYYYGRSATRPEYDYWGQGTQVTVSS	high polyreactivity
QVQLVESGGGLVQARGSLRLSCAASGSTILYYAMGWYRQAPGKERELVAVIRLDAGRTYYADSVKGRFTISRDNAKNTVYFQMNSLKPEDTAVYYCAAKGCFRTYGGGNYWGQGTQVTVSS	high polyreactivity
QVQLVESGGGLVQARGSLRLSCAASVSTFGGNAMGWYRQAPGKERQLVAAISCIGGGTYYADSVKGRFTISRDNAKNTVYLQMKSLKPEYTAVYYCAAKIFIRVHYYSYRMYYWGQGTQLTVSS	low polyreactivity
QVQLVESGGGLVQARGSLRLSCAATGSTLSFYAMVWYRQAPGKERELVAAISYSTGTTYYADSVKGRFTISRDNAKNTVYLQMNSLKPEDTAVYYCNAVGTGGYSSEYGYWGQGTQVTVSS	high polyreactivity
QVQLVESGGGLVQARGSLRLSCEASGFTFGSNTMACYRQAPGKERELVAAITRRGGSTNYADSVKGRFTISRDNAKNTVYLQMNSLKPDDTAVYYCARDYRSYTVSYDTSYDYWGQGTQVTVSS	high polyreactivity
QVQLVESGGGLVQARGSLRLSSAASGSTFVVNAMGWYRQAPGKERELVAAITQSGGSTFYADSVKGRFTISRVNAKNTVYLQMNSLQAEDTAVYYWGQGTQVTVSS	low polyreactivity
QVQLVESGGGLVQARGSLRLSSGASGSTFATDYAMGWYRQAPGKERELDAAIAYTSASTYYADSVKGRITISRDNAKNPVYLQMNTLKPEDTAVYYCAADYGGTREYYWGQGTQVTVSS	low polyreactivity
QVQLVESGGGLVQARGSRRLSCAASGFIFRFNAMGWYRQAPGKERELVASITGSGGITYADSVKRRFTMSRDNAKNTVFLPMHSLKPDDTAVYYSAARGDGYQSGWVADWAPFYYWRQGTQVTVSS	high polyreactivity
QVQLVESGGGLVQARRSLRLSCAASGFTVKRYAMGWYRPEPGKEREFVAAITRGGGSTYYADYVKGRFTISRDNAKNTVYLQMNSLKPEDTAVYYCNARSRSYVPYYYWGQGTQVTVSS	high polyreactivity
QVQLVESGGGLVQARRSLRLSCAASGNIFWRNAMGWYRQAPGKERELVAAISRRAVSTYYADSVKGRFTISRDNAKNTVYLQMNSLKPEDTAVYYCAARLGGENDYWGQGTQVTVSS	high polyreactivity
QVQLVESGGGLVQAVASLRLSCAASGRIFGPYAMGWDRQAPGKERELVASITRSGGRTYYADSVKGRFTISRDYAKNTVYLQMNSLKPDDTAVYYCAAGGFSKSDYYWGQGTQVTVSS	high polyreactivity
QVQLVESGGGLVQAVGRLRLSCAASGGIFSINAMGWYRQAPGKERELVAAIRWNSGRTYYADSVKGRFTISRDNAKNTVYLQMNSLKPEDTAVYYCAVRDYISWEDYYWGQGTQVTVSS	high polyreactivity
